Test results as given in publication PMC12669672, “Structural insights into selective and dual antagonism of EP2 and EP4 prostaglandin receptors” (The EMBO Journal, 2025).
Several values for one entry are separate records, joined by “and”; a condition that tells them apart may be missing. Equal values may be shown once.

Key:
[1] = test system: WT and mutant EP2 receptors; assay: Cell-surface expression, FACS with anti-FLAG FITC antibody; parameters: species or system human; details: single experiments 1st-3rd
Method: Cell-surface expression levels of both wild-type and mutant receptors were assessed using a fluorescence-activated cell sorting (FACS) assay. Briefly described, AD293 cells expressing FLAG-tagged EP2 or EP4 receptors were collected 24 h post-transfection. These cells were then incubated with a mouse anti-FLAG FITC-conjugated antibody (Sigma) at a 1:200 dilution for 2 h at 4 °C in a dark environment. Subsequently, cells were washed with 100 µL of PBS. Surface expression levels were quantified by measuring the fluorescence intensity of FITC using a Guava® easyCyte flow cytometer. Data were normalized relative to the expression levels of the wild-type receptors. These experiments were conducted in triplicate, and the results were expressed as mean ± S.E.M.

EP2-D311A = target: T1, EP2-D311A (Homo sapiens, UniProt P43116, D311A); assay: GloSensor cAMP assay, PGE2 induced cAMP signaling (activation); assay type: cell-based
T1 construct: The full-length EP2 or EP4 was cloned into the pcDNA3.1 vector (Invitrogen), incorporating an N-terminal FLAG tag; expressed in transfected cells; host or cells: AD293
Method: (§1) The full-length EP2 or EP4 was cloned into the pcDNA3.1 vector (Invitrogen), incorporating an N-terminal FLAG tag. AD293 cells were seeded in six-well plates containing DMEM supplemented with 10% dialyzed FBS 1 day prior to transfection. Following overnight growth, cells were transfected with a 1:1 ratio of receptor construct and GloSensor22F cAMP biosensor (Promega) plasmids.
(§2) Twenty-four hours post-transfection, the cells were transferred to CO2-independent media containing 2% GloSensor cAMP Reagent (Promega) and distributed into 384-well assay plates at a density of 4000 cells per well in 10 μL. […] The plates were then incubated at 37 °C for an additional hour before luminescence measurements were taken using an EnVision plate reader.
(§3) Data analysis was performed using GraphPad Prism software v8.0.1. A nonlinear regression analysis, employing a sigmoidal dose–response model, was conducted to determine the Emax values and half-maximum inhibitory concentrations (IC50) for each compound tested.

EP2-F273A = target: T2, EP2-F273A (Homo sapiens, UniProt P43116, F273A); assay: as above; assay type: cell-based
T2 construct: The full-length EP2 or EP4 was cloned into the pcDNA3.1 vector (Invitrogen), incorporating an N-terminal FLAG tag; expressed in transfected cells; host or cells: AD293
Method: as §1, §2, §3

EP2 WT = EP2 WT (Homo sapiens, UniProt P43116); assay: as above; assay type: cell-based; parameters: The full-length EP2 or EP4 was cloned into the pcDNA3.1 vector (Invitrogen), incorporating an N-terminal FLAG tag; expressed in transfected cells; host or cells: AD293
Method: as §1, §2, §3

[2] = 1 h, PGE2 log([M]) -7, single experiments 1st-3rd, Fig. 2D, read-out: % cAMP activity (normalized to WT)
[3] = single experiments 1st-3rd, Appendix Fig. S6A

T2 sequence (P43116 whole entry F273A): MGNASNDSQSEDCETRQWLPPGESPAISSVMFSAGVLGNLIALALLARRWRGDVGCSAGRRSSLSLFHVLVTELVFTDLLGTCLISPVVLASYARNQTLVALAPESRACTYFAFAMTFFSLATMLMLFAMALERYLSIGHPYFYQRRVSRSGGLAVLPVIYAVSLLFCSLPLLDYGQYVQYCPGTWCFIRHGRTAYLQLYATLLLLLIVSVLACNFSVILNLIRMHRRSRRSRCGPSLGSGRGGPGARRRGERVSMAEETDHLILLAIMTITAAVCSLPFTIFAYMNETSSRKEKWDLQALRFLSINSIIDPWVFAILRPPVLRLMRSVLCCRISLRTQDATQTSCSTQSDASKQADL
Sequence of EP2 WT (P43116 whole entry): as the sequence (P43116 whole entry F273A) above, with A273F counted along it
T1 sequence (P43116 whole entry D311A): as the sequence (P43116 whole entry F273A) above, with A273F, D311A counted along it

Row | Compound | Surface expression ( 100% WT) [1] | further results
1 | EP2 S86A | 89.91% and 90.65% and 110.47% | 
2 | EP2 WT | 104.67% and 99.81% and 95.51% | 
3 | EP2 E23A | 92.71% and 100.19% and 95.51% | 
4 | CCCCC[C@H](O)/C=C/[C@H]1[C@H](O)CC(=O)[C@@H]1C/C=C\CCCC(=O)O [PGE2, Prostaglandin E2] |  | remaining activity at 0.1 µM (EP2-D311A; [2]): 91.9%; Emax (EP2-D311A; mean ± S.E.M., n = 3): 92.4 ± 3.9%; PGE2 cAMP activity (∆pIC50 from EP2 WT) (EP2-D311A; [3]): -1.566 and -1.416 and -1.487; remaining activity at 1 µM (EP2-F273A; 1 h, PGE2 log([M]) -6, single experiments 1st-3rd, Fig. 2D, read-out: % cAMP activity (normalized to WT)): 96.2%; remaining activity at 0.1 µM (EP2-F273A; [2]): 32.4%; Emax (EP2-F273A; mean ± S.E.M., n = 3): 117 ± 2.9%; remaining activity at 0.0001 µM (EP2 WT; 1 h, PGE2 log([M]) -10, single experiments 1st-3rd, Fig. 2D, read-out: % cAMP activity (normalized to WT)): 16.5%; Emax (EP2 WT; mean ± S.E.M., n = 3): 100 ± 3.9%; PGE2 cAMP activity (∆pIC50 from EP2 WT) (EP2 WT; [3]): 0.007 and -0.051 and 0.045
5 | EP2 M116A | 99.63% and 105.23% and 100.56% | 
6 | EP2 T82A | 106.36% and 116.26% and 103.74% | 
7 | EP2 S305A | 98.88% and 97.38% and 93.83% | 
8 | EP2 W186A | 116.07% and 83.36% and 84.86% | 
9 | EP2 S28A | 106.92% and 107.85% and 105.61% | 
10 | EP2 S308A | 115.51% and 112.90% and 88.41% | 
